# According to paper PMC4273445 (eLife, 2014):
# Tests used:
# Assay in all cases: SPR
# [1] = biological target: fHbp 1.P249 (N. meningitidis) (UniProt E6MV22)
# [2] = biological target: fHbp V3.28 Thr (at V1 Ser185) to Ala (N. meningitidis)
# [3] = biological target: fHbp V1.1 His184 to Ala (N. meningitidis)
# [4] = biological target: fHbp V3.28 Lys (at V1 His184) to Ala (N. meningitidis)
# [5] = biological target: fHbp V2.21 Asn (at V1 Gln180) to Ala (N. meningitidis)
# [6] = biological target: fHbp V3.28 Gly (at V1 Glu109) to Ala (N. meningitidis)
# [7] = biological target: fHbp V3.28 Glu (at V1 Asp262) to Ala (N. meningitidis)
# [8] = biological target: fHbp V1.1 Leu156 to Ala (N. meningitidis)
# [9] = biological target: fHbp V3.28 Ser (at V1 Gln193) to Ala (N. meningitidis)
# [10] = biological target: fHbp V2.21 Ile (at V1 Ile273) to Ala (N. meningitidis)
# [11] = biological target: fHbp 1.P74 (N. meningitidis) (UniProt E6MV22)
# [12] = biological target: fHbp V3.28 Thr (at V1 Glu304) to Ala (N. meningitidis)
# [13] = biological target: fHbp V2.21 Val (at V1 Ile311) to Ala (N. meningitidis)
# [14] = biological target: fHbp V1.1 Ser104 to Ala (N. meningitidis)
# [15] = biological target: fHbp V2.21 Val (at V1 Val149) to Ala (N. meningitidis)
# [16] = biological target: fHbp 1.P4 (N. meningitidis) (UniProt E6MV22)
# [17] = biological target: fHbp V2.21 Thr (at V1 Glu304) to Ala (N. meningitidis)
# [18] = biological target: fHbp 1.P276 (N. meningitidis) (UniProt E6MV22)
# [19] = biological target: fHbp V3.28 Asn (at V1 Gln180) to Ala (N. meningitidis)
# [20] = biological target: fHbp V3.28 Gln (at V1 Lys107) to Ala (N. meningitidis)
# [21] = biological target: fHbp V3.28 Pro (at V1 Ser182) to Ala (N. meningitidis)
# [22] = biological target: fHbp V2.21 Ile (at V1 Ile154) to Ala (N. meningitidis)
# [23] = biological target: fHbp V1.1 Lys268 to Ala (N. meningitidis)
# [24] = biological target: fHbp V1.1 Ile147 to Ala (N. meningitidis)
# [25] = biological target: fHbp 2.P25 (N. meningitidis) (UniProt E6MV22)
# [26] = biological target: fHbp V3.28 Val (at V1 Val149) to Ala (N. meningitidis)
# [27] = biological target: fHbp V2.21 Glu (at V1 Glu283) to Ala (N. meningitidis)
# [28] = biological target: fHbp V2.21 Asn (at V1 Asn108) to Ala (N. meningitidis)
# [29] = biological target: fHbp V2.21 Glu (at V1 Glu157) to Ala (N. meningitidis)
# [30] = biological target: fHbp V1.1 Ser286 to Ala (N. meningitidis)
# [31] = biological target: fHbp V3.28 Phe (at V1 Phe292) to Ala (N. meningitidis)
# [32] = biological target: fHbp V3.28 Lys (at V1 Lys268) to Ala (N. meningitidis)
# [33] = biological target: fHbp V2.21 Lys (at V1 Lys92) to Ala (N. meningitidis)
# [34] = biological target: fHbp 2.P23 (N. meningitidis) (UniProt E6MV22)
# [35] = biological target: fHbp V1.1 Leu289 to Ala (N. meningitidis)
# [36] = biological target: fHbp V1.1 Phe174 to Ala (N. meningitidis)
# [37] = biological target: fHbp V1.1 Glu183 to Ala (N. meningitidis)
# [38] = biological target: fHbp V1.1 Glu109 to Ala (N. meningitidis)
# [39] = biological target: fHbp V2.21 Ala (at V1 Pro265) to Pro (N. meningitidis)
# [40] = biological target: fHbp V3.28 Leu (at V1 Phe174) to Ala (N. meningitidis)
# [41] = biological target: fHbp V2.21 His (at V1 His248) to Ala (N. meningitidis)
# [42] = biological target: fHbp V3.28 Ile (at V1 Ile154) to Ala (N. meningitidis)
# [43] = biological target: fHbp V2.21 Ser (at V1 Ser302) to Ala (N. meningitidis)
# [44] = biological target: fHbp 1.P78 (N. meningitidis) (UniProt E6MV22)
# [45] = biological target: fHbp V1.1 Gln193 to Ala (N. meningitidis)
# [46] = biological target: fHbp V1.1 Val149 to Ala (N. meningitidis)
# [47] = biological target: fHbp V3.28 Ile (at V1 Ile147) to Ala (N. meningitidis)
# [48] = biological target: fHbp V1.1 Asp150 to Ala (N. meningitidis)
# Chain of CFH67, CCP domains 6 and 7 of complement factor H (P08603 321-443): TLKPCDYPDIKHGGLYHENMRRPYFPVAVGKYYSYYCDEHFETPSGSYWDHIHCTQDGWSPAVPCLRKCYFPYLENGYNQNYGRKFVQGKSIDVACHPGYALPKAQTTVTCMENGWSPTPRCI
substance,measurement,setting,value
"CFH67, CCP domains 6 and 7 of complement factor H (from UniProt P08603 321-443) (domain or fragment)",Kd,[1],5.36 nM
same,Kd,[2],4.42 nM
same,Kd,[3],9.27 nM
same,Kd,[4],2.76 nM
same,Kd,[5],6.21 nM
same,Kd,[6],2.82 nM
same,Kd,[7],6.4 nM
same,Kd,[8],60.5 nM
same,Kd,[9],4.14 nM
same,Kd,[10],0.231 nM
same,Kd,[11],5.14 nM
same,Kd,[12],11.7 nM
same,Kd,[13],6.07 nM
same,Kd,[14],9.78 nM
same,Kd,[15],6.9 nM
same,Kd,[16],3.94 nM
same,Kd,[17],19.2 nM
same,Kd,[18],8.9 nM
same,Kd,[19],8.49 nM
same,Kd,[20],46.4 nM
same,Kd,[21],3.06 nM
same,Kd,[22],25.8 nM
same,Kd,[23],3.53 nM
same,Kd,[24],17.3 nM
same,Kd,[25],0.346 nM
same,Kd,[26],6.81 nM
same,Kd,[27],197 nM
same,Kd,[28],3.82 nM
same,Kd,[29],0.401 nM
same,Kd,[30],11.3 nM
same,Kd,[31],1.97 nM
same,Kd,[32],2.61 nM
same,Kd,[33],2.73 nM
same,Kd,[34],1.99 nM
same,Kd,[35],1.44 nM
same,Kd,[36],3.21 nM
same,Kd,[37],7.02 nM
same,Kd,[38],2.93 nM
same,Kd,[39],3.7 nM
same,Kd,[40],4.8 nM
same,Kd,[41],1.92 nM
same,Kd,[42],14.3 nM
same,Kd,[43],8.39 nM
same,Kd,[44],10.5 nM
same,Kd,[45],6.66 nM
same,Kd,[46],9.28 nM
same,Kd,[47],33.6 nM
same,Kd,[48],6.11 nM
"CFHR3_(12), the first two (N-terminal) CCP domains of complement factor H-related 3 (from UniProt Q02985 19-330) (domain or fragment)",Kd,[1],32.3 nM
same,Kd,[2],3.76 nM
same,Kd,[3],118 nM
same,Kd,[4],3.05 nM
same,Kd,[5],5.87 nM
same,Kd,[6],1.96 nM
same,Kd,[7],6.86 nM
same,Kd,[8],311 nM
same,Kd,[9],3.03 nM
same,Kd,[10],0.605 nM
same,Kd,[11],56.9 nM
same,Kd,[12],17.5 nM
same,Kd,[13],9.68 nM
same,Kd,[14],382 nM
same,Kd,[15],5.82 nM
same,Kd,[16],75 nM
same,Kd,[17],16.3 nM
same,Kd,[18],37.9 nM
same,Kd,[19],7.86 nM
same,Kd,[20],25.3 nM
same,Kd,[21],3.24 nM
same,Kd,[22],14.8 nM
same,Kd,[23],43 nM
same,Kd,[24],174 nM
same,Kd,[25],1.61 nM
same,Kd,[26],8.28 nM
same,Kd,[27],22.6 nM
same,Kd,[28],4.26 nM
same,Kd,[29],2.74 nM
same,Kd,[30],93.6 nM
same,Kd,[31],2.91 nM
same,Kd,[32],3.2 nM
same,Kd,[33],3.06 nM
same,Kd,[34],1.7 nM
same,Kd,[35],18.4 nM
same,Kd,[36],338 nM
same,Kd,[37],81 nM
same,Kd,[38],27.9 nM
same,Kd,[39],4.12 nM
same,Kd,[40],4.78 nM
same,Kd,[41],3.56 nM
same,Kd,[42],13.7 nM
same,Kd,[43],6.3 nM
same,Kd,[44],80 nM
same,Kd,[45],158 nM
same,Kd,[46],6540 nM
same,Kd,[47],17.9 nM
same,Kd,[48],118 nM
